Assay [1] deals with CD81 MBP-LEL (maltose-binding protein fused to the CD81 large extracellular loop, residues 113-201) (human) (UniProt P60033). Put plainly: CD81 MBP-LEL solid-phase assay, virion-incorporated E2.
Assay [2] deals with HCV E1 glycoprotein (H77c), expressed from the pE1E2 vectors (hepatitis C virus H77c) (UniProt P27958). In words: cell-based or functional assay.
The target of assay [3] is full-length human CD81 expressed on transfected CHO-K1 cells (human) (UniProt P60033). In words: binding to CD81-transfected CHO-K1 cells, 125I-9E10 detection.
Chain of full-length human CD81 expressed on transfected CHO-K1 cells (human) (P60033 whole entry): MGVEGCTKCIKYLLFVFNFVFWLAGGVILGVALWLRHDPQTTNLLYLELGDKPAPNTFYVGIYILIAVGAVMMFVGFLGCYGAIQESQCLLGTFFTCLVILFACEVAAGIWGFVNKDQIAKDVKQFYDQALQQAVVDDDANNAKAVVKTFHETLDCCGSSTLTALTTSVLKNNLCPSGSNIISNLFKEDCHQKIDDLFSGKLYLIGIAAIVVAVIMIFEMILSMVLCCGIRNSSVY

Here are results for 3 substances from patent US20110014209A1.

Chain of CD81 MBP-LEL (maltose-binding protein fused to the CD81 large extracellular loop, residues 113-201) (human) (P60033 113-201 limits assumed): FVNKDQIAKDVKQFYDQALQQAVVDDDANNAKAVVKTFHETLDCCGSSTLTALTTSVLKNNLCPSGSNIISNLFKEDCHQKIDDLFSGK

In turn, “E2 glycoprotein expressed from pE1E2 Δ1 (HVR1 deletion, residues 387-408 replaced by GSSG) (from UniProt P27958 409-746)” gave a fold increase in the overall binding curve compared to wild-type in assay [1] of 4 fold. In assay [2], “E2 glycoprotein expressed from pE1E2 Δ3 link (igVR deletion with extended linker) (from UniProt P27958 384-571; P27958 579-746)” showed an E1E2-mediated entry of pseudotyped HIV-1 particles into Huh7 cells (luciferase) of 8 fold. Consider “E2 Δ12-myc (from UniProt P27958 384-386; P27958 409-459; P27958 486-661)”, for which the percent reduction in CD81 binding compared to E2 Δ23-myc in assay [3] came to 50%.
